In paper PMC13348673:

Experiments:
[1] = molecular target: Arp2/3 complex branch junction (sheep Arp2/3 complex bound to rabbit actin mother and daughter filaments) (sheep (endogenous in brain) | rabbit) (UniProt P68135)
[2] = molecular target: Arp2/3 complex branch junction (sheep Arp2/3 complex bound to rabbit actin mother and daughter filaments) (sheep (endogenous in brain) | rabbit) (UniProt P68135); experiment: microfluidics debranching assay under pulling force (TIRF microscopy of single branches); ADP-Arp2/3 branch junctions exposed to various GMF concentrations; constant average force 2.8 pN; 0.15 µM actin, 200 µM ATP; affinity from the fit of the saturation curve of the debranching rate
[3] = molecular target: Arp2/3 complex branch junction (sheep Arp2/3 complex bound to rabbit actin mother and daughter filaments) (sheep (endogenous in brain) | rabbit) (UniProt P68135); remark: listed apart in the source

| stability (inverse debranching rate) of ADP-Arp2/3 complex branches at 6 pN with 20 nM cortactin against no cortactin [1] [fold] | Kd [2] [nM] | debranching rate of ADP-Arp2/3 complex branch junctions against GMF concentration (2.8 pN, 0.15 µM actin, 200 µM ATP) [3] [fold] | Substance |
| --- | --- | --- | --- |
| 30 |  |  | Mouse cortactin full length (amino acids 1–546) (from UniProt Q60598 1-546) (natural protein) |
|  | 30 | 6 | Recombinant N-terminal 6xHis-tagged human GMFγ (amino acids 7–140) (from UniProt O60234 7-140) (natural protein) |
